From patent publication US10925971B2, “Methods of treating PRLR positive breast cancer” (Regeneron Pharmaceuticals, Inc., priority 2016, dated 2021)
Residue numbers refer to the chain shown, from its start. One block for each molecule: values may come before it.

Columns and labels:
[1] = biological target: T1, native PRLR expressing T47D cells (Homo sapiens, UniProt P16471); assay: FACS cell surface binding
T1 construct: a native PRLR expressing cell line (T47D); endogenous in cells; host or cells: T47D
T1 sequence (P16471 25-622): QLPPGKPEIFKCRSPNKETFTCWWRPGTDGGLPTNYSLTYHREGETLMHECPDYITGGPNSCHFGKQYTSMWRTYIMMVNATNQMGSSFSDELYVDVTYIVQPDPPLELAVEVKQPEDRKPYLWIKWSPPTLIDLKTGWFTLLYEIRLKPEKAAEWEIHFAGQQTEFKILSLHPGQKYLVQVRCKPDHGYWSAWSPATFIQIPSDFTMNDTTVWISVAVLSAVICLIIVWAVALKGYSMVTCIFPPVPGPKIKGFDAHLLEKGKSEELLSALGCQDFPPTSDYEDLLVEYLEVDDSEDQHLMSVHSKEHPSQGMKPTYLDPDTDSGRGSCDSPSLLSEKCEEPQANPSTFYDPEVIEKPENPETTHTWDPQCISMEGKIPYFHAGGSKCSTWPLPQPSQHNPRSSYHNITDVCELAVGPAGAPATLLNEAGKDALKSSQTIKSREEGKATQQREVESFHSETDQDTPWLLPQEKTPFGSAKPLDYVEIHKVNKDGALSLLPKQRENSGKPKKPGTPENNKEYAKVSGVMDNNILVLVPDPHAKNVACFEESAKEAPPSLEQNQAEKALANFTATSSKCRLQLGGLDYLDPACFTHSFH
Protocol: (§1) Cell surface expression of PRLR on 293/hPRLR cells was assessed via FACS analysis. Briefly, 1×10^5 cells were incubated with 10 μg/ml of Control antibody I, or an isotype control for 30 min on ice in antibody dilution buffer. Following two washes with antibody dilution buffer, cells were incubated with 10 μg/ml of PE conjugated anti-human secondary antibodies for 30 min on ice. Following two additional washes, samples were run on a Hypercyt® cytometer and analyzed in ForeCyt™ (IntelliCyt, Albuquerque, N. Mex.). The mean fluorescence intensities (MFI) were expressed as fold change above isotype control levels (background). FACS binding confirmed that Control I selectively bound to 293/hPRLR expressing cells with MFIs that were 30 fold above background (isotype ctrl) levels and less than 2 fold binding on parental cells.
(§2) Next, the anti-PRLR antibodies were tested via FACS for selective binding to the engineered overexpressing PRLR HEK293 cell lines, as well as to non-expressing HEK293 cells and a native PRLR expressing cell line (T47D).

[2] = test system: HEK293 parental cells; assay: FACS cell surface binding; design: species or system human
Protocol: (§3) The ability of anti-PRLR antibodies to selectively bind PRLR expressing cell lines was next determined. Human, monkey Macaca fascicularis, and mouse PRLR constructs with an HA tag were stably introduced into HEK293 cells via Lipofectamine 2000-mediated transfection methodology. Transfectants (HEK293/hPRLR, HEK293/mfPRLR and HEK293/mPRLR) were selected for at least 2 weeks in complete growth media plus G418.
as §1, §2

[3] = biological target: T2, mouse PRLR on HEK293/mPRLR cells (Mus musculus, UniProt Q08501); assay: FACS cell surface binding
T2 construct: HA; expressed in transfected cells; host or cells: HEK293
T2 sequence (Q08501 20-608): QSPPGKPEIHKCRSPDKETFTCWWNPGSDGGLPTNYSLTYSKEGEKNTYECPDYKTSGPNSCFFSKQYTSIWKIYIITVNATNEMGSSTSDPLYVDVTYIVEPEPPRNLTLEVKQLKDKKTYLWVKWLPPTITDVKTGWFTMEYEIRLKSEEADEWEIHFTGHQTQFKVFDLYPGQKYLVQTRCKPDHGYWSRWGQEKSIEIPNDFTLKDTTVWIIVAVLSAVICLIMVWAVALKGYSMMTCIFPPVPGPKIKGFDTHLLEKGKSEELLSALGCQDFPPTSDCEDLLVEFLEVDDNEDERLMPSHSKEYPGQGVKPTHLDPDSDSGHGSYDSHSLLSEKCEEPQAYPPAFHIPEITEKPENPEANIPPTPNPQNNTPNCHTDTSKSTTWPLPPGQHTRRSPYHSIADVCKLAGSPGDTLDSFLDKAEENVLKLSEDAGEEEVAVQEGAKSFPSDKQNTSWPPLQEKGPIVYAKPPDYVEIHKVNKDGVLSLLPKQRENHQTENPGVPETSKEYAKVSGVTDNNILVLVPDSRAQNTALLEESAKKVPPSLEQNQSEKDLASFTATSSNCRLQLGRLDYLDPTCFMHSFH
Protocol: as §3, §1, §2

[4] = biological target: T3, human PRLR on HEK293/hPRLR cells (Homo sapiens, UniProt P16471); assay: FACS cell surface binding
T3 construct: HA; expressed in transfected cells; host or cells: HEK293
T3 sequence (P16471 25-622): T1 sequence (P16471 25-622)
Protocol: as §3, §1, §2

[5] = biological target: T4, monkey PRLR on HEK293/mfPRLR cells (Macaca fascicularis, UniProt A0A2K5WXK1); assay: FACS cell surface binding
T4 construct: HA; expressed in transfected cells; host or cells: HEK293
T4 sequence (A0A2K5WXK1 25-619): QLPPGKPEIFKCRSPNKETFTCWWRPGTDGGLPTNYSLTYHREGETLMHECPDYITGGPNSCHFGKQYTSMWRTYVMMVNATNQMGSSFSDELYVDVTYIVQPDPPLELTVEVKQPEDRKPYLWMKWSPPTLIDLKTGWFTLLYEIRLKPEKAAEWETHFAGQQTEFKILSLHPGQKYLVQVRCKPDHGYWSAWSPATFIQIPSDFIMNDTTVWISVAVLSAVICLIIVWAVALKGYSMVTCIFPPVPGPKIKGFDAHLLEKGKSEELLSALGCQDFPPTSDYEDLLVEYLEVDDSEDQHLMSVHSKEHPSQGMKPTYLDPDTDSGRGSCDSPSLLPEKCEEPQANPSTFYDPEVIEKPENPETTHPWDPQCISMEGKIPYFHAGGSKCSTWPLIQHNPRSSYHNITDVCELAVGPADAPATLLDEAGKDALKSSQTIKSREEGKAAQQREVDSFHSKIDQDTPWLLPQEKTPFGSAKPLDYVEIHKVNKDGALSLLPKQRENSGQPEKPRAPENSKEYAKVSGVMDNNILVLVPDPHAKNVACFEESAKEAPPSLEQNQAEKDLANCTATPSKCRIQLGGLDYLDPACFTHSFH
Protocol: as §3, §1, §2

[6] = biological target: T5, dimeric human PRLR (hPRLR.mFc; SEQ ID NO:402) (Homo sapiens, UniProt P16471); assay: Surface plasmon resonance (Biacore T200), antibody-capture format; assay type: binding; conditions: analyte hPRLR.mFc
T5 construct: dimeric (hPRLR.mFc)
T5 sequence (P16471 with tags, fused parts or gaps): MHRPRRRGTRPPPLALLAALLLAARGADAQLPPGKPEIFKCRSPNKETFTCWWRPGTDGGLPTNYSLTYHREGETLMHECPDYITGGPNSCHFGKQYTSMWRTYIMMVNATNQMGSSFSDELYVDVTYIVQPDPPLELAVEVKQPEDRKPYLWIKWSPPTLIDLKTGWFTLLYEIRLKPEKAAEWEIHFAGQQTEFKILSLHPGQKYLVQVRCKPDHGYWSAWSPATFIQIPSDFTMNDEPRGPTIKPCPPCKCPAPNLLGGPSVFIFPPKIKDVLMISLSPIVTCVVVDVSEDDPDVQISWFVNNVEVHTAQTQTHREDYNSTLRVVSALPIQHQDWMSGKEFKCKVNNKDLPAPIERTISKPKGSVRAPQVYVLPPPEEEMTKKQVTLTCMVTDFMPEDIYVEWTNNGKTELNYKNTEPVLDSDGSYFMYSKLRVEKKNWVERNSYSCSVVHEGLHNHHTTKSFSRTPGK
Protocol: (§4) Antibodies, expressed as human IgG1 Fc (i.e., “H1H” designations), were captured onto an anti-human Fc sensor surface (mAb-capture format), and soluble monomeric (hPRLR.mmh; SEQ ID NO:401, or Macaca fascicularis (mf) PRLR.mmh; SEQ ID NO:403) or dimeric (hPRLR.mFc; SEQ ID NO:402) PRLR protein was injected over the sensor surface. Measurements were conducted on a T200 Biacore instrument. Kinetic association (ka) and dissociation (kd) rate constants were determined by processing and fitting the data to a 1:1 binding model using Scrubber 2.0 curve fitting software.

[7] = biological target: T6, monomeric human PRLR (hPRLR.mmh; SEQ ID NO:401) (Homo sapiens, UniProt P16471); assay: as above; assay type: binding; conditions: analyte hPRLR.mmh
T6 construct: soluble monomeric (hPRLR.mmh); mmh (myc-myc-hexahistidine) (C)
T6 sequence (P16471 with tags, fused parts or gaps): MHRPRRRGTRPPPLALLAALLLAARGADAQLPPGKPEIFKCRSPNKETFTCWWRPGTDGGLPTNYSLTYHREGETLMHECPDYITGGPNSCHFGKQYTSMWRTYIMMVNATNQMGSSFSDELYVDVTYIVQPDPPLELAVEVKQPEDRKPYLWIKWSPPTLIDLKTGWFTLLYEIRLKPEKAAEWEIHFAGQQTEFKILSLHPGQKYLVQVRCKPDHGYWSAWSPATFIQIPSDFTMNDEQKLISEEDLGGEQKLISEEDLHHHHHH
Protocol: as §4

[8] = test system: Macaca fascicularis PRLR (mfPRLR.mmh; SEQ ID NO:403); assay: as above; assay type: binding; conditions: analyte mfPRLR.mmh
Macaca fascicularis PRLR (mfPRLR.mmh; SEQ ID NO:403), sequence (as listed by the source): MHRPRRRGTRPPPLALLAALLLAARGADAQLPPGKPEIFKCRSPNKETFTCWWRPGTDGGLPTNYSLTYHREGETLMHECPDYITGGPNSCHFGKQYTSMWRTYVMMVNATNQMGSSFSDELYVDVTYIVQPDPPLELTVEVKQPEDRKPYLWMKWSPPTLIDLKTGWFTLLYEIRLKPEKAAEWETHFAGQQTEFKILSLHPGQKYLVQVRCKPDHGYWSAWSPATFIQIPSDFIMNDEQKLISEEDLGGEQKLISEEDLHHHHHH
Protocol: as §4

FACS Cell Binding [1]: 37 Fold Above Background
FACS Cell Binding [3]: 1 Fold Above Background
FACS Cell Binding [4]: 8 Fold Above Background
FACS Cell Binding [5]: 29 Fold Above Background
ka ([6]; 25° C.): 1.12e+06 M/s
kd ([6]; 25° C.): 0.000101 s⁻¹
ka ([6]; 37° C.): 1.37e+06 M/s
kd ([6]; 37° C.): 0.00014 s⁻¹
ka ([7]; 25° C.): 544000 M/s
kd ([7]; 25° C.): 0.000864 s⁻¹
ka ([7]; 37° C.): 777000 M/s
kd ([7]; 37° C.): 0.00314 s⁻¹
kd ([8]; 25° C.): 0.000814 s⁻¹
kd ([8]; 37° C.): 0.00316 s⁻¹
B1: H1H6976N: anti-PRLR antibody, human IgG1 Fc form of H2M6976N of Table 1; HCVR/LCVR SEQ ID NOs 386/394 (antibody, V domains shown)
VH: EVQLLESGGGFVQPGGSLRLSCAASGFTFSSYAMSWVRQAPGKGLEWVSIISSNGRYTYYADSVKGRFTISRDNSKNTLYLQMNSLRAEDTAVYYCATVTGDWFDPWGQGTLVTVSS
VL: DIQLTQSPSFLSASVGDRVTITCWASQDIDISLAWYQQKPGKAPKLLIYAASTLQSGVPSKFSGSGSGTDFTLTISSLQPEDFSTYYCQQLNSYPITFGQGTRLDIK
modifications: human IgG1 Fc
FACS Cell Binding [2]: 1 Fold Above Background
ka ([8]; 25° C.): 466000 M/s
ka ([8]; 37° C.): 603000 M/s

FACS Cell Binding [1]: 31 Fold Above Background
FACS Cell Binding [3]: 1 Fold Above Background
FACS Cell Binding [4]: 29 Fold Above Background
FACS Cell Binding [5]: 18 Fold Above Background
ka ([6]; 25° C.): 931000 M/s
kd ([6]; 25° C.): 4.08e-05 s⁻¹
ka ([6]; 37° C.): 1.88e+06 M/s
kd ([6]; 37° C.): 0.000127 s⁻¹
ka ([7]; 25° C.): 852000 M/s
kd ([7]; 25° C.): 0.000257 s⁻¹
ka ([7]; 37° C.): 1.58e+06 M/s
kd ([7]; 37° C.): 0.00096 s⁻¹
kd ([8]; 25° C.): 0.000325 s⁻¹
kd ([8]; 37° C.): 0.0012 s⁻¹
B2: H1H6966N: anti-PRLR antibody, human IgG1 Fc form of H2M6966N of Table 1; HCVR/LCVR SEQ ID NOs 338/346 (antibody, V domains shown)
VH: QVQLVQSGAEVQKPGASVKVSCKVSGYTLTALSIHWVRQAPGKGLEWMGNFDPGDGETIHAQKFQGRVTMTGDTSTDTAYMELSSLRSEDTAVYYCVGVTFDYWGQGTLVTVSS
VL: EIVMTQSPATLSVSPGERATLSCRASQSVASNLAWYQQKPGQAPRLLLYGASTRATGIPARFSGSGSGTEFTLTISSLQSEDFALYYCQHYNNWPLTFGGGTKVEIK
modifications: human IgG1 Fc
FACS Cell Binding [2]: 1 Fold Above Background
ka ([8]; 25° C.): 782000 M/s
ka ([8]; 37° C.): 1.22e+06 M/s

FACS Cell Binding [1]: 41 Fold Above Background
FACS Cell Binding [3]: 2 Fold Above Background
FACS Cell Binding [4]: 38 Fold Above Background
FACS Cell Binding [5]: 28 Fold Above Background
ka ([6]; 25° C.): 407000 M/s
kd ([6]; 25° C.): 4.45e-05 s⁻¹
ka ([6]; 37° C.): 907000 M/s
kd ([6]; 37° C.): 9.73e-05 s⁻¹
ka ([7]; 25° C.): 246000 M/s
kd ([7]; 25° C.): 0.000332 s⁻¹
ka ([7]; 37° C.): 424000 M/s
kd ([7]; 37° C.): 0.000933 s⁻¹
kd ([8]; 25° C.): 0.000585 s⁻¹
kd ([8]; 37° C.): 0.00162 s⁻¹
B3: H1H6967N: anti-PRLR antibody, human IgG1 Fc form of H2M6967N of Table 1; HCVR/LCVR SEQ ID NOs 354/362 (antibody, V domains shown)
VH: EVQLVESGGDLVHPGRSLRLSCAASGFPFDEYAMHWVRQVPGKGLEWVSGISWSNNNIGYADSVKGRFTISRDNAKNSLYLQMNSLRPEDTAFYYCAKSGIFDSWGQGTLVTVSS
VL: B2 VL with A30S, S31R, N32D, L48I, Y49H, T69A, T74I, L85V, H90Q
modifications: human IgG1 Fc
FACS Cell Binding [2]: 1 Fold Above Background
ka ([8]; 25° C.): 190000 M/s
ka ([8]; 37° C.): 356000 M/s

FACS Cell Binding [1]: 33 Fold Above Background
FACS Cell Binding [3]: 1 Fold Above Background
FACS Cell Binding [4]: 29 Fold Above Background
FACS Cell Binding [5]: 23 Fold Above Background
ka ([6]; 25° C.): 252000 M/s
kd ([6]; 25° C.): 3.56e-05 s⁻¹
ka ([6]; 37° C.): 294000 M/s
kd ([6]; 37° C.): 0.000147 s⁻¹
ka ([7]; 25° C.): 108000 M/s
kd ([7]; 25° C.): 0.000729 s⁻¹
ka ([7]; 37° C.): 122000 M/s
kd ([7]; 37° C.): 0.00198 s⁻¹
kd ([8]; 25° C.): 0.000583 s⁻¹
kd ([8]; 37° C.): 0.00128 s⁻¹
B4: H1H6960N: anti-PRLR antibody, human IgG1 Fc form of H2M6960N of Table 1; HCVR/LCVR SEQ ID NOs 322/330 (antibody, V domains shown)
VH: EVQLVESGGGLVKPGGSLRLSCAASGITFSSYSMNWVRQAPGKGLEWVSSISTRSSLIHYADSVKGRFTISRDNAKNSLYLQMNSLRDEDTAVYYCARWDAAAAFDYWGQGTLVIVSS
VL: DIQLTQSPSFLSASVGDRVTITCWASQGISSYLAWYQQKPGKAPKLLIYVASTLQSGVPSRFSGSGSGTEFTLTISSLQPEDFATYFCQQLNSYPLTFGGGTKVEIK
modifications: human IgG1 Fc
FACS Cell Binding [2]: 1 Fold Above Background
ka ([8]; 25° C.): 94000 M/s
ka ([8]; 37° C.): 86400 M/s
